Laboratory results from patent US20200317768A1 (published 2020).

Assays:
[1] = target: T1, human FcγRIIIaV extracellular domain, C-terminal His-tag (human, UniProt P08637 17-208); assay: SPR (Biacore), antibody captured, FcgR analyte, 25 C
T1 construct: also called FcgRIIIaV; not shown: His-tag added to C-terminus
Description: (§1) The kinetic analysis of interactions between these antibodies and FcγR was carried out using BIACORE® T200 or BIACORE® 4000 (GE Healthcare). HBS-EP+ (GE Healthcare) was used as the running buffer, and the measurement temperature was set to 25° C. A chip produced by immobilizing Protein A. Protein A/G or mouse anti-human IgG kappa light chain (BD Biosciences) onto a Series S Sensor Chip CM4 or CM5 (GE Healthcare) by the amine-coupling method was used. […] After the measurement, the antibody captured on the chip was washed off by allowing reaction with 10 mM glycine-HCl, pH1.5 and 25 mM NaOH so that the chip was regenerated and used repeatedly. The sensorgrams obtained as measurement results were analyzed by the 1:1 Langmuir binding model using the BIACORE® Evaluation Software to calculate the binding rate constant ka (L/mol/s) and dissociation rate constant kd (l/s), and the dissociation constant KD (mol/L) was calculated from these values. […] Regarding such interactions, KD values were calculated using the following 1:1 binding model described in BIACORE® T100 Software Handbook BR1006-48 Edition AE.
(§2) The behavior of interacting molecules according to the 1:1 binding model on BIACORE® can be described by Equation 1: Req=C·R max/(KD+C)+RI, wherein, Req is a plot of steady-state binding levels to analyte concentration. C is concentration, RI is bulk refractive index contribution in the sample, and Rmax is analyte binding capacity of the surface. When this equation is rearranged, KD can be expressed as Equation 2: KD=C·Rmax/(Req−RI)−C. KD can be calculated by substituting the values of Rmax, RI, and C into Equation 1 or Equation 2. From the current measurement conditions, RI=0, C=2 μmol/L can be used.

[2] = target: T2, human FcγRIIb extracellular domain, C-terminal His-tag (human, UniProt P31994 43-217); assay: as above
T2 construct: also called FcgRIIb (human); not shown: His-tag added to C-terminus
T2 sequence: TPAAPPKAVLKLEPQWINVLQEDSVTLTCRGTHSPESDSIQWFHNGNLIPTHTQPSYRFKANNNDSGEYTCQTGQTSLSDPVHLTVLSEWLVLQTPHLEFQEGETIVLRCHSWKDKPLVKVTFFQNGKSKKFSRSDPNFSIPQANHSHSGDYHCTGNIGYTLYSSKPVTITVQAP
Description: as §1, §2

[3] = target: T3, human FcγRIIaH extracellular domain, C-terminal His-tag (human, UniProt P12318 34-217); assay: as above
T3 construct: also called human FcγRIIa (type H); FcgRIIaH; not shown: His-tag added to C-terminus
T3 sequence: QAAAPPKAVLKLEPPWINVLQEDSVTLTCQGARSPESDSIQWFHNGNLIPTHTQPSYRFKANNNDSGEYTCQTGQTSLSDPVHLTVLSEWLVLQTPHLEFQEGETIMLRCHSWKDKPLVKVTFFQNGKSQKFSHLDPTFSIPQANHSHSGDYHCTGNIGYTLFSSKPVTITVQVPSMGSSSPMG
Description: as §1, §2

[4] = target: T4, cynomolgus monkey FcγRIIa1 extracellular domain, C-terminal His-tag (cynomolgus monkey); assay: as above
T4 construct: also called cyno FcγRIIa1; cynoFcgRIIa1; not shown: His-tag added to C-terminus
T4 chain: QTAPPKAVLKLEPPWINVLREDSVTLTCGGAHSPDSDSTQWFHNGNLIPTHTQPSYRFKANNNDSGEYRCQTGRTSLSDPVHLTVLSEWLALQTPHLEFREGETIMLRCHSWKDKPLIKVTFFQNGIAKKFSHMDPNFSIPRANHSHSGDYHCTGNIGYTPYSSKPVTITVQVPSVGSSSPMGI
Description: as §1, §2

[5] = target: T5, cynomolgus monkey FcγRIIa3 extracellular domain, C-terminal His-tag (cynomolgus monkey); assay: as above
T5 construct: also called cyno FcγRIIa3; cynoFcgRIIa3; not shown: His-tag added to C-terminus
T5 chain: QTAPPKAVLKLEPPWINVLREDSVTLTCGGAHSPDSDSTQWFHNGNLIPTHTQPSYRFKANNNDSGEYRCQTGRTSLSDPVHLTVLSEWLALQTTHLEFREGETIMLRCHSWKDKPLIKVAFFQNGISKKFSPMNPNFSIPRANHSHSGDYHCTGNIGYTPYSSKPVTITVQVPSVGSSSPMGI
Description: as §1, §2

[6] = target: T6, human FcγRIIaR extracellular domain, C-terminal His-tag (human, UniProt P12318 34-217); assay: as above
T6 construct: also called human FcγRIIa (type R); FcgRIIaR; not shown: His-tag added to C-terminus
T6 chain: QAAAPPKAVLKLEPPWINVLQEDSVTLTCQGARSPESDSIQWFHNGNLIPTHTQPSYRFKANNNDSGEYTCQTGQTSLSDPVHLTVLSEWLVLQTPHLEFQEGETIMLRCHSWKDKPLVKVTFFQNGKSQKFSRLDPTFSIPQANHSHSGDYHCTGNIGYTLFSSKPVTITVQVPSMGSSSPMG
Description: as §1, §2

[7] = target: T7, cynomolgus monkey FcγRIIIaS extracellular domain, C-terminal His-tag (cynomolgus monkey, UniProt A3RFZ7 21-206 (rhesus entry)); assay: as above
T7 construct: also called cyno FcγRIIIaS; cynoFcγRIIIaS; not shown: His-tag added to C-terminus
Description: as §1, §2

[8] = target: T1, human FcγRIIIaV extracellular domain, …; assay: SPR (Biacore), KD of SG1 / KD of variant;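 also: relative to parent M103205H795-SG1 carrying the SG1 human heavy chain constant region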
Description: as §1, §2

[9] = target: T2, human FcγRIIb extracellular domain, …; assay: SPR (Biacore), KD of SG1 / KD of variant;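 also: relative to parent M103205H795-SG1 carrying the SG1 human heavy chain constant region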
Description: as §1, §2

[10] = target: T3, human FcγRIIaH extracellular domain, …; assay: SPR (Biacore), KD of SG1 / KD of variant;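 also: relative to parent M103205H795-SG1 carrying the SG1 human heavy chain constant region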
Description: as §1, §2

[11] = target: T4, cynomolgus monkey FcγRIIa1 …; assay: SPR (Biacore), KD of SG1 / KD of variant;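 also: relative to parent M103205H795-SG1 carrying the SG1 human heavy chain constant region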
Description: as §1, §2

[12] = target: T8, cynomolgus monkey FcγRIIa2 extracellular domain, C-terminal His-tag (cynomolgus monkey); assay: SPR (Biacore), KD of SG1 / KD of variant
T8 construct: also called cyno FcγRIIa2; cynoFcgRIIa2; not shown: His-tag added to C-terminus
T8 chain: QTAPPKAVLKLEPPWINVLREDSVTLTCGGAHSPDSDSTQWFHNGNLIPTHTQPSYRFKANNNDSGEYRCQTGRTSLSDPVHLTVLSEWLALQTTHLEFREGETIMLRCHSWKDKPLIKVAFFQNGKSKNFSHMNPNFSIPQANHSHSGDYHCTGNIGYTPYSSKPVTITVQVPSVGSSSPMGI
Description: as §1, §2

[13] = target: T5, cynomolgus monkey FcγRIIa3 …; assay: SPR (Biacore), KD of SG1 / KD of variant
Description: as §1, §2

[14] = target: T6, human FcγRIIaR extracellular domain, …; assay: SPR (Biacore), KD of SG1 / KD of variant
Description: as §1, §2

[15] = target: T7, cynomolgus monkey FcγRIIIaS …; assay: SPR (Biacore), KD of SG1 / KD of variant
Description: as §1, §2

T7 sequence (A3RFZ7 21-206): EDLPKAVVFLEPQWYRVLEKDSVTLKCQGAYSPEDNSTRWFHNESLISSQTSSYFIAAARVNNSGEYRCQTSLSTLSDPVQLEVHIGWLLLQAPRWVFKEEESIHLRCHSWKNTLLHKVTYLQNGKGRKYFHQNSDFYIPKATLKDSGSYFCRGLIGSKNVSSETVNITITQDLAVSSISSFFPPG
T1 sequence (P08637 17-208 F176V): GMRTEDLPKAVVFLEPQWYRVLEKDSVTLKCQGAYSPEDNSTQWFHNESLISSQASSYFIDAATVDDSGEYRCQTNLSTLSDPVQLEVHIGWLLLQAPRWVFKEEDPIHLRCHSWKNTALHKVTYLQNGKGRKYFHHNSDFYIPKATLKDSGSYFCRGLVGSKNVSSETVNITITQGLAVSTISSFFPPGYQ

B1: M103205H795-MY316/M103202L889-SK1 (antibody, human IgG1, kappa)
heavy: QVTLKESGPVLVKPTETLTLTCTVSGIDLSHDDISWVRQAPGKGLEWVGIISYAGSTYYASWAKGRLTISKDTSKNQVVLTMTNMDPVDTATYYCARGVPAYSHGGDLWGQGTLVTVSSASTKGPSVFPLAPSSKSTSGGTAALGCLVKDYFPEPVTVSWNSGALTSGVHTFPAVLQSSGLYSLSSVVTVPSSSLGTQTYICNVNHKPSNTKVDKKVEPKSCDKTHTCPPCPAPELLLGPSVFLFPPKPKDTLMISRTPEVTCVVVDVSEEDPEVKFNWYVDGVEVHNAKTKPREELYNSTYRVVSVLTVLHQDWLNGKEYKCKVSNKALPKPIEKTISKAKGQPREPQVYTLPPSREEMTKNQVSLTCLVKGFYPSDIAVEWESNGQPENNYKTTPKVLDSDGSFFLYSKLTVDKSRWQQGNVFSCSVMHEALHNHYTQKSLSLSP
light: DIVMTQSPATLSLSPGERATLSCTSSQSVYHANWLSWFQQKPGQPPKLLIYWASTLAYGVPSRFSGSGSGTDFTLTISSLQPEDAATYYCAGGYGGGRYAFGQGTKVEIKRTVAAPSVFIFPPSDEQLKSGTASVVCLLNNFYPREAKVQWKVDNALQSGNSQESVTEQDSKDSTYSLSSTLTLSKADYEKHKVYACEVTHQGLSSPVTKSFNRGEC
In the case of B1, the Kd [1] is reported as 17 µM, the Kd [2] is reported as 4 µM and the Kd [3] is reported as 0.44 µM. The Kd [4] was 5.1 µM, the Kd [5] was 22 µM and the Kd [6] was 1.1 µM. The Kd [7] was 2.4 µM, the “KD fold (SG1 = 1)” value [8] was 0.05 fold and the “KD fold (SG1 = 1)” value [9] was 1.2 fold. For the same binder, the “KD fold (SG1 = 1)” value [10] was 1.6 fold, the “KD fold (SG1 = 1)” value [11] was 0.6 fold and the “KD fold (SG1 = 1)” value [12] was 0.6 fold. The “KD fold (SG1 = 1)” value [13] was 0.6 fold, the “KD fold (SG1 = 1)” value [14] was 1.1 fold and the “KD fold (SG1 = 1)” value [15] was 0.15 fold.
